The experiment has as its target tetanus toxoid (UniProt P04958 2-1315). In words: ELISA. In general terms: In an ELISA, binding on a coated surface is turned into a signal by an enzyme label.

B1: Sample C: protein from vectors pG31020, pG31030 and pG31027, consisting of FvL-AHECa, FvH-AHECb and ubiquitin-AHECc with a disulfide bridge between AHECa and … (other)
VL: MDIVMTQSQKFMSTSVGDRVSVTCKASQNVGASVAWYQQKPGQSPKILIYSASYRYSGVPDRFTGSGSGTDFTLTISNVQSEDLAEYFCQQYNGYPLTFGAGTKLELRTSDSLRLQQLFRDCEDEETWIREKEPIAASTAMDIGINSDPNSSSVDKLAAALEHHHHHH
VH: MGSGIEGRMASEVQLQQSGPELVKPGASVKMSCKASGYTFTNYIMYWVTQRPGQGLEWIGYIHPYNDDTKYNEKFKDKATLTSDRSSRTAYMELSSLTSEDSAVYYCARKKANFGYGPWFAYWGQGTLVTVSARTKHQALQAEIAGHEPRIKACTQKGNAMVEESLEHHHHHH
chain: not shown
B1 showed a Ka of 4.3e+08 M⁻¹.

Source of the values: US20030170230A1 (published 2003).
